Laboratory results as given in patent US20080260789A1.

Key:
[1] = molecular target: Cav channels of P. americana DUM neurons (Periplaneta americana); test: cell-based or functional assay
[2] = molecular target: α-subunit of the P. americana high conductance calcium-activated potassium channel (pSlo) (Periplaneta americana); test: cell-based or functional assay

rU-ACTX-Hv1a (peptide)
IC50 of block of Cav currents in DUM neurons, whole-cell patch clamp [1]: 409 nM | IC50 of block of pSlo currents in HEK293 cells, whole-cell patch clamp [2]: 579 nM
